Where two headings read alike, the source gives them in different places. Numbered stars: 1 amine (or outer) side, 2 acyl side, 3 side chain; on linkers, the order of the positions; unused ones are H or OH. Square brackets hold non-standard residues; d marks the D form. Bip = N[C@@H](Cc1ccc(-c2ccccc2)cc1)C(=O)O; Phe(4-CN) = N#Cc1ccc(C[C@H](N)C(=O)O)cc1; Phe(4-F) = N[C@@H](Cc1ccc(F)cc1)C(=O)O; Dmt = Cc1cc(O)cc(C)c1C[C@H](N)C(=O)O; hPhe = N[C@@H](CCc1ccccc1)C(=O)O; NMeβAla = CN(CCC(=O)[*:2])[*:1]; dTic = O=C(O)[C@H]1Cc2ccccc2CN1; β3hF = N[C@H](CC(=O)O)Cc1ccccc1; NMeL = CN[C@@H](CC(C)C)C(=O)O; NMeA = CN[C@@H](C)C(=O)O; Nle = CCCC[C@H](N)C(=O)O; Sar = CNCC(=O)O
B1: H-DMT-r-H-K-NH2 (peptide)
peptide: H-[Dmt][dR]HK-NH2
SMILES: Cc1cc(O)cc(C)c1C[C@H](N)C(=O)N[C@H](CCCNC(=N)N)C(=O)N[C@@H](Cc1c[nH]cn1)C(=O)N[C@@H](CCCCN)C(N)=O
B2: H-DMT-r-Homo-F-N(Me)bAla-OH (peptide)
peptide: H-[Dmt][dR]X[NMeβAla]-OH
modifications: not fully specified (residue 3); printed as H-DMT-r-Homo-F-N(Me)bAla-OH
B3: H-DMT-a-hF-Sar-NH2 (peptide)
peptide: H-[Dmt][dA][hPhe][Sar]-NH2
SMILES: Cc1cc(O)cc(C)c1C[C@H](N)C(=O)N[C@H](C)C(=O)N[C@@H](CCc1ccccc1)C(=O)N(C)CC(N)=O
B4: H-DMT-r-Phe(4-F)-Sar-NH2 (peptide)
peptide: H-[Dmt][dR][Phe(4-F)][Sar]-NH2
SMILES: Cc1cc(O)cc(C)c1C[C@H](N)C(=O)N[C@H](CCCNC(=N)N)C(=O)N[C@@H](Cc1ccc(F)cc1)C(=O)N(C)CC(N)=O
B5: H-DMT-r-W-N(Me)bAla-OH (peptide)
peptide: H-[Dmt][dR]W[NMeβAla]-OH
SMILES: Cc1cc(O)cc(C)c1C[C@H](N)C(=O)N[C@H](CCCNC(=N)N)C(=O)N[C@@H](Cc1c[nH]c2ccccc12)C(=O)N(C)CCC(=O)O
B6: H-DMT-dTic-F-Sar-NH2 (peptide)
peptide: H-[Dmt][dTic]F[Sar]-NH2
SMILES: Cc1cc(O)cc(C)c1C[C@H](N)C(=O)N1Cc2ccccc2C[C@@H]1C(=O)N[C@@H](Cc1ccccc1)C(=O)N(C)CC(N)=O
B7: H-DMT-(D)Asp-G-bhF-N(Me)-Leu-OH (peptide)
peptide: H-[Dmt][dD]G[β3hF][NMeL]-OH
SMILES: Cc1cc(O)cc(C)c1C[C@H](N)C(=O)N[C@H](CC(=O)O)C(=O)NCC(=O)N[C@H](CC(=O)N(C)[C@@H](CC(C)C)C(=O)O)Cc1ccccc1
B8: H-DMT-a-hF-Nle-NH2 (peptide)
peptide: H-[Dmt][dA][hPhe][Nle]-NH2
SMILES: CCCC[C@H](NC(=O)[C@H](CCc1ccccc1)NC(=O)[C@@H](C)NC(=O)[C@@H](N)Cc1c(C)cc(O)cc1C)C(N)=O
B9: H-DMT-(D)Asp-G-bhF-N(Me)-Ala-OH (peptide)
peptide: H-[Dmt][dD]G[β3hF][NMeA]-OH
SMILES: Cc1cc(O)cc(C)c1C[C@H](N)C(=O)N[C@H](CC(=O)O)C(=O)NCC(=O)N[C@H](CC(=O)N(C)[C@@H](C)C(=O)O)Cc1ccccc1
B10: H-DMT-r-Phe(4-CN)-Sar-NH2 (peptide)
peptide: H-[Dmt][dR][Phe(4-CN)][Sar]-NH2
SMILES: Cc1cc(O)cc(C)c1C[C@H](N)C(=O)N[C@H](CCCNC(=N)N)C(=O)N[C@@H](Cc1ccc(C#N)cc1)C(=O)N(C)CC(N)=O
B11: H-DMT-r-Bip-K-NH2 (peptide)
peptide: H-[Dmt][dR][Bip]K-NH2
SMILES: Cc1cc(O)cc(C)c1C[C@H](N)C(=O)N[C@H](CCCNC(=N)N)C(=O)N[C@@H](Cc1ccc(-c2ccccc2)cc1)C(=O)N[C@@H](CCCCN)C(N)=O
B12: H-DMT-dTic-G-F-Sar-NH2 (peptide)
peptide: H-[Dmt][dTic]GF[Sar]-NH2
SMILES: Cc1cc(O)cc(C)c1C[C@H](N)C(=O)N1Cc2ccccc2C[C@@H]1C(=O)NCC(=O)N[C@@H](Cc1ccccc1)C(=O)N(C)CC(N)=O

How the values were obtained:
Assay in all cases: cell-based or functional assay
[1] = biological target: T1, µ-opioid receptor (MOR), Human-ORPM1 (human, UniProt P35372 1-400)
[2] = biological target: T2, δ-opioid receptor (DOR), Human-ORPD1 (human, UniProt P41143 1-372)
[3] = biological target: T1, µ-opioid receptor (MOR), Human-ORPM1; remark: listed apart in the source
[4] = biological target: T2, δ-opioid receptor (DOR), Human-ORPD1; remark: listed apart in the source

T1 sequence (P35372 whole entry): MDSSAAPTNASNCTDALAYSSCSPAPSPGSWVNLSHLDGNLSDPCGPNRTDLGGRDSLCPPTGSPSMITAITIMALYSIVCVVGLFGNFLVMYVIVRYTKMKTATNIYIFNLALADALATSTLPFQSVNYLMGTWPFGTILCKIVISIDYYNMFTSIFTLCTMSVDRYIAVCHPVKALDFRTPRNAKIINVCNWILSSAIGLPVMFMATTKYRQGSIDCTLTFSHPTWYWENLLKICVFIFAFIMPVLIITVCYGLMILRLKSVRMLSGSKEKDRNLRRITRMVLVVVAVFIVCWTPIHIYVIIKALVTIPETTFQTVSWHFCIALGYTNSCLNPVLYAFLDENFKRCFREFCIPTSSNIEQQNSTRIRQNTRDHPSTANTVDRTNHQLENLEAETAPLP
T2 sequence (P41143 whole entry, stated change not applied): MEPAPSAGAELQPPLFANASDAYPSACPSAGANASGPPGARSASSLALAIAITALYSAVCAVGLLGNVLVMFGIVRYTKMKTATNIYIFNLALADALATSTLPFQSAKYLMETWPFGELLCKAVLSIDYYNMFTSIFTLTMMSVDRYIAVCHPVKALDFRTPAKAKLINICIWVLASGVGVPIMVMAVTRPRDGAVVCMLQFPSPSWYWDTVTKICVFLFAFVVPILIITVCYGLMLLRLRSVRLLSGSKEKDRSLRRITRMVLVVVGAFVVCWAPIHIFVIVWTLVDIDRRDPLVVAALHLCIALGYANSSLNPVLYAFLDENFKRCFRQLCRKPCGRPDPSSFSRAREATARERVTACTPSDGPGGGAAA

Binder | MOR EC50 [1] | DOR EC50 [2] | MOR EC50 [3] | DOR EC50 [4]
B1 | ≤ 50 nM | > 200 nM |  | 
B2 | ≤ 1 nM | ≤ 1 nM |  | 
B3 | ≤ 1 nM | ≤ 1 nM |  | 
B4 | ≤ 1 nM | ≤ 10 nM |  | 
B5 | ≤ 1 nM | ≤ 50 nM |  | 
B6 | ≤ 1 nM | ≤ 10 nM |  | 
B7 |  |  | ≤ 1 nM | ≤ 1 nM
B8 | ≤ 1 nM | ≤ 1 nM |  | 
B9 |  |  | ≤ 1 nM | ≤ 1 nM
B10 | ≤ 10 nM | ≤ 1 nM |  | 
B11 | ≤ 200 nM | > 200 nM |  | 
B12 | ≤ 1 nM | ≤ 1 nM |  | 

Reference: patent publication US20190076400A1 (PROTAGONIST THERAPEUTICS, published 2019)
